Assay results taken from paper PMC12866179, “Oxidized MIF is an Alzheimer’s disease drug target relaying external risk factors to tau pathology” (Cell Reports Medicine, 2025).

Target: T1, recombinant human wild-type macrophage migration inhibitory factor (MIF) (human), P14174
T1 chain: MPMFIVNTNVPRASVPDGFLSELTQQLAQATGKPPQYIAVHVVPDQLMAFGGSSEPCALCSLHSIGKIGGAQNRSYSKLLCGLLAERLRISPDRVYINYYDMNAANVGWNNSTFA
Test: SEC-MALS; 100 uM MIF (WT or C80W) in 20 mM phosphate buffer, with or without 100 uM PAV-174; TSKgel G2000SWXL, 0.5 mL/min, 25 C; UV 280 nm and miniDawn Treos light scattering
Settings: remark: other sources report otherwise

B1: recombinant human wild-type macrophage migration inhibitory factor (MIF), P14174 1-115 (natural protein)
chain: MPMFIVNTNVPRASVPDGFLSELTQQLAQATGKPPQYIAVHVVPDQLMAFGGSSEPCALCSLHSIGKIGGAQNRSYSKLLCGLLAERLRISPDRVYINYYDMNAANVGWNNSTFA
stoichiometry N: 3
